Consider 5 molecules from patent US20240376189A1 (University of Pennsylvania, published 2024).

Test [1] deals with T1, human C5a (human, UniProt P01031 678-751, biotinylated in the U937/C5aR ligand blocking assay (site not stated)).
T1 construct: also called human antigen; huC5a
T1 sequence: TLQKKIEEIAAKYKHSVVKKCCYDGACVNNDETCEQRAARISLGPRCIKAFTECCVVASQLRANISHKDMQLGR
Nature of the test: ligand blocking, flow cytometry: antibody titrated against 20 nM biotinylated human C5a binding to U937/C5aR cells, Experiment #1. The protocol:
(§1) U937/C5aR cells were washed twice by PBS and suspended in assay buffer (PBS+0.1% BSA) at the density of 3×10⁶ cells/ml. […] 1000 rpm centrifuge for 3-5 min at 4° C., remove supernatant and cells were washed by pre-cold PBS twice. Add 100 μl FITC conjugated streptavidin (eBioscience) to cells and incubate on ice for another 30 min. Centrifuge at 4° C., remove supernatant and cells were washed by pre-cold PBS twice. Add 150 μl 0.5% PFA to suspend cells and detect the signal by FACS (Beckman, Cytoflex). IC₅₀ value was calculated by GraphPad Prism software.
(§2) Mean fluorescence intensities were measured at each antibody concentration. U937 cells without addition of antibodies was used as the low control.

In test [2] the target is T1, human C5a. Nature of the test: cell-based or functional assay.
Test [3] addresses T1, human C5a. Nature of the test: ELISA, antibody titrated on C5a-coated plate.
The target in test [4] is T2, human C5 (human, UniProt P01031 19-673; P01031 678-1676, limits assumed).
T2 construct: In the sheep RBC lysis assay, C5 is the C5 of normal human serum; also called huC5
Put plainly: BLI (Gator), percentage dissociation from human C5 at pH 5.8 over pH 7.4. Here is the method:
(§3) pH dependency of the humanized anti-C5a constructs were tested using C5 binding assays. A Biolayer interferometry instrument, Gator™ (Probe life Inc., USA) was used to determine pH dependent dissociation of histidine mutants and the benchmark antibodies. Briefly, anti-human IgG Fc (FHC) Probes were equilibrated in the kinetic (K) buffer of Phosphate-buffered saline containing 0.02% bovine serum albumin and 0.002% Tween20 pH 7.4. Antibodies were captured onto the sensors by dipping them into 200 μL of transfection supernatant for 600 s at pH 7.4. The biosensors were then incubated with human C5 prepared in the K buffer pH 7.4 (40 nM) for 600s followed by 600-second dissociation period in K Buffer, pH 7.4 or pH 5.8. The data were processed and analyzed by the Gator evaluation software.

Test [5] concerns the target T1, human C5a. Nature of the test: cell-based or functional assay. The source holds these as a separate data set.
Test [6] has as its target T2, human C5. Put plainly: ELISA, antibody titrated on C5-coated plate. From the text: The anti-C5a constructs were further tested for their affinities to human C5 using ELISA. Off-target C5 binding reduces availability of anti-C5a antibodies (C5-mediated “sink effect”). […] Each data point was the mean of 2 replicates.
In general terms: An ELISA detects its analyte on a solid surface through an enzyme-linked reagent.

The target in test [7] is T1, human C5a. Put plainly: ligand blocking, flow cytometry: antibody titrated against 20 nM biotinylated human C5a binding to U937/C5aR cells, Experiment #2. Here is the method:
as §1, §2

For test [8], the target named is T2, human C5. Put plainly: BLI (Gator), antibody on anti-human IgG Fc probes, 40 nM human C5 bound 600 s at pH 7.4, 600 s dissociation at pH 7.4. Here is the method: as §3
Test [9] concerns the target T2, human C5. Nature of the test: ELISA, affinity for human C5 against affinity for human C5a.
Test [10] has as its target T2, human C5. Put plainly: BLI (Gator), antibody on anti-human IgG Fc probes, 40 nM human C5 bound 600 s at pH 7.4, 600 s dissociation at pH 5.8. The protocol: as §3
In test [11] the target is T1, human C5a. Put plainly: SPR, scFv captured via anti-c-myc/anti-His, 5 nM human antigen as analyte, 1:1 fit.
Test [12] concerns the target T3, cynomolgus antigen (cynomolgus).
T3 construct: also called cyno antigen; cynomolgus monkey C5a
Put plainly: SPR, scFv captured via anti-c-myc/anti-His, 60 nM cynomolgus antigen as analyte, 1:1 fit. The protocol: The activator was prepared by mixing 400 mM EDC (1-ethyl-3-(3-dimethylaminopropyl) carbodiimide) and 100 mM NHS (N-hydroxysuccinimide) (GE) immediately prior to injection. The CMS sensor chip was activated for 600 s with the mixture at a flow rate of 10 μL/min. Mixture of anti-c-myc and anti his antibodies in 10 mM NaAc (pH 4.5) was then injected to Fc1 and Fc2 of channel 1 to channel 8 for 600 seconds at a flow rate of 10 μL/min. The chip was deactivated by 1 M ethanolamine-HCl (GE) at a flow rate of 10 μL/min for 420 seconds.
The anti-C5a scFv was diluted to 0.5 μg/ml, the other samples were diluted to 2 μg/ml in running buffer 1×HBS-EP+ (0.01 M HEPES, 0.15 M NaCl, 0.003 M EDTA, 0.05% surfactant P20). […] Diluted TES buffer was injected into channel Fc1 at a flow rate of 10 μL/min for 40 s, diluted scFv was injected into channel Fc2 at a flow rate of 10 μL/min for 40 s. […] 10 mM glycine pH 1.5 as regeneration buffer was injected following every dissociation phase. The chip was regenerated with 10 mM glycine pH 1.5.
The sensorgrams for reference channel Fc1 and buffer channel were subtracted from the test sensorgrams. Data were fitted by 1:1 kinetic binding model. Molecular weight of 8.4 kDa was used to calculate the molar concentration of the cyno antigen.
In general terms: In SPR one partner is held on a chip, and binding of the other changes the refractive index at the surface.

Test [13] deals with T3, cynomolgus antigen. Nature of the test: SPR, scFv captured, cynomolgus antigen as analyte.

B1: E54H (humanized anti-C5a IgG4 antibody) (antibody, V domains shown)
VH: QVQLVQSGAEVKKPGSSVKVSCKASGYTHTDHIIHWMRQAPGQGLEWMGYIYPRHGWTNYNENFKGRVTITADKSTSTAYMELSSLRSEDTAVYYCARERNLEYFDYWGQGTTVTVSS
VL: DIVLTQSPASLAVSPGQRATITCKASQSVDYEGFNYMNWYQQKPGQPPKLLIYAASNLDSGVPARFSGSGSGTDFTLTINPVEAEDTANYYCQQSNEDPHTFGGGTKVEIKR
notes: Carries F29H and E54H in VH and Y96H in VL (Kabat) relative to 16D10
For the molecule B1, in the test with human C5a [1], the IC50 worked out at 2.57 nM. In the test with human C5a [2], the “Inhibition of calcium influx IC50 (nM), FLIPR, Experiment #1” value came out at 0.136 nM and the “Inhibition of calcium influx IC50 (nM), FLIPR, Experiment #2” value came out at 0.154 nM. Moreover, in the test with human C5a [3], the “affinity determined by ELISA, huC5a” value came out at 0.336 nM. Also, in the test with human C5 [4], the “Ratio between dissociation at pH 5.8 and 7.4” value (shortened to “Ratio between dissociation”) was determined as 11.3. For the same molecule, in the test with human C5a [5], the “Inhibition of cell migration IC50 (nM), U937-C5aR cells” value (“Inhibition of cell migration IC50 (nM)” for short) stood at 0.076 nM. Further, the “affinity determined by ELISA, huC5” value with human C5 [6] turned out to be 0.0601 nM. In the test with human C5a [7], the IC50 was 6.53 nM. The “Dissociation pH 7.4 (%)” value with human C5 [8] was found to be 5.39%. Also, in the test with human C5 [9], the “Fold affinity (C5/C5a)” value was 5.6 fold. In addition, in the test with human C5 [10], the “Dissociation pH 5.8 (%)” value turned out to be 60.8%.

B2: NM2 (scFv, V domains shown)
VH: QVQLVQSGAEVKKPGSSVKVSCKASGYTFTDHIIHWMRQAPGQGLEWMGYIYPREGNTNYNENFKGRVTITADKSTSTAYMELSSLRSEDTAVYYCARERNLEYFDYWGQGTTVTVSS
VL: DIVLTQSPASLAVSPGQRATITCKASQSVDYEGDNYMNWYQQKPGQPPKLLIYAASNLDSGVPARFSGSGSGTDFTLTINPVEAEDTANYYCQQSNEDPHTFGGGTKVEIK
notes: scFv expressed in E. coli BL21 (periplasmic extract)
Regarding B2, the koff in the test with human C5a [11] stood at 0.000736 s⁻¹. In addition, the koff with cynomolgus antigen [12] amounted to 0.0783 s⁻¹. In the test with cynomolgus antigen [13], this molecule gave a Kd of 190 nM, a koff of 0.133 s⁻¹ and a kon of 702000 M⁻¹ s⁻¹.

B3: N92H (humanized anti-C5a IgG4 antibody) (antibody, V domains shown)
VH: QVQLVQSGAEVKKPGSSVKVSCKASGYTHTDHIIHWMRQAPGQGLEWMGYIYPREGWTNYNENFKGRVTITADKSTSTAYMELSSLRSEDTAVYYCARERNLEYFDYWGQGTTVTVSS
VL: DIVLTQSPASLAVSPGQRATITCKASQSVDYEGFNYMNWYQQKPGQPPKLLIYAASNLDSGVPARFSGSGSGTDFTLTINPVEAEDTANYYCQQSHEDPHTFGGGTKVEIKR
notes: Carries F29H in VH and N92H and Y96H in VL (Kabat); also called N92H antibody
In the test with human C5a [1], B3 returned an IC50 of 3.68 nM. Also, in the test with human C5a [2], the “Inhibition of calcium influx IC50 (nM), FLIPR, Experiment #1” value was 0.078 nM and the “Inhibition of calcium influx IC50 (nM), FLIPR, Experiment #2” value was found to be 0.145 nM. Also, in the test with human C5a [3], the “affinity determined by ELISA, huC5a” value was determined as 0.468 nM. For the same molecule, the “Ratio between dissociation” value with human C5 [4] turned out to be 6.54. Further, the “Inhibition of cell migration IC50 (nM)” value with human C5a [5] was determined as 0.099 nM. Also, the “affinity determined by ELISA, huC5” value with human C5 [6] was found to be 0.12 nM. This molecule registered an IC50 with human C5a [7] of 6.23 nM. In the test with human C5 [8], the “Dissociation pH 7.4 (%)” value is 8.29%. Besides, in the test with human C5 [9], the “Fold affinity (C5/C5a)” value amounted to 3.9 fold. Further, the “Dissociation pH 5.8 (%)” value with human C5 [10] is 54.2%.

B4: N97H (humanized anti-C5a IgG4 antibody) (antibody, V domains shown)
VH: QVQLVQSGAEVKKPGSSVKVSCKASGYTHTDHIIHWMRQAPGQGLEWMGYIYPREGWTNYNENFKGRVTITADKSTSTAYMELSSLRSEDTAVYYCARERHLEYFDYWGQGTTVTVSS
VL: DIVLTQSPASLAVSPGQRATITCKASQSVDYEGFNYMNWYQQKPGQPPKLLIYAASNLDSGVPARFSGSGSGTDFTLTINPVEAEDTANYYCQQSNEDPHTFGGGTKVEIKR
notes: Carries F29H and N97H in VH and Y96H in VL (Kabat)
Turning to B4, the IC50 with human C5a [1] worked out at 4.71 nM; with human C5a [7], 5.96 nM. The “Inhibition of calcium influx IC50 (nM), FLIPR, Experiment #1” value with human C5a [2] came to 0.072 nM. In the test with human C5a [2], the “Inhibition of calcium influx IC50 (nM), FLIPR, Experiment #2” value came to 0.138 nM. For the same molecule, the “affinity determined by ELISA, huC5a” value with human C5a [3] worked out at 0.408 nM. The “Ratio between dissociation” value with human C5 [4] was 10.9. Besides, the “Inhibition of cell migration IC50 (nM)” value with human C5a [5] was determined as 0.07 nM. Besides, in the test with human C5 [6], the “affinity determined by ELISA, huC5” value was found to be 0.0682 nM. For the same molecule, the “Dissociation pH 7.4 (%)” value with human C5 [8] amounted to 4.49%. In addition, in the test with human C5 [9], the “Fold affinity (C5/C5a)” value was found to be 6 fold. Moreover, in the test with human C5 [10], the “Dissociation pH 5.8 (%)” value was 49%.

B5: 16D10 (humanized anti-C5a IgG4 antibody) (antibody, V domains shown)
VH: QVQLVQSGAEVKKPGSSVKVSCKASGYTFTDHIIHWMRQAPGQGLEWMGYIYPREGWTNYNENFKGRVTITADKSTSTAYMELSSLRSEDTAVYYCARERNLEYFDYWGQGTTVTVSS
VL: DIVLTQSPASLAVSPGQRATITCKASQSVDYEGFNYMNWYQQKPGQPPKLLIYAASNLDSGVPARFSGSGSGTDFTLTINPVEAEDTANYYCQQSNEDPYTFGGGTKVEIKR
notes: also called WT (16D10); WT
The molecule B5 returned an IC50 with human C5a [1] of 2.03 nM. Further, in the test with human C5a [2], the “Inhibition of calcium influx IC50 (nM), FLIPR, Experiment #1” value is 0.106 nM and the “Inhibition of calcium influx IC50 (nM), FLIPR, Experiment #2” value was found to be 0.135 nM. Moreover, the “affinity determined by ELISA, huC5a” value with human C5a [3] amounted to 0.269 nM. Also, the “Ratio between dissociation” value with human C5 [4] was -2.09. The “Inhibition of cell migration IC50 (nM)” value with human C5a [5] turned out to be 0.061 nM. Further, in the test with human C5 [6], the “affinity determined by ELISA, huC5” value was 0.0288 nM. In addition, the IC50 with human C5a [7] came out at 5.9 nM. In addition, the “Dissociation pH 7.4 (%)” value in the test with human C5 [8] is 1.16%. In the test with human C5 [9], the “Fold affinity (C5/C5a)” value came to 9.3 fold. The “Dissociation pH 5.8 (%)” value with human C5 [10] is -2.42%.

The term IC50 denotes the midpoint of a concentration-inhibition curve. Lower therefore signals greater potency in that assay. For orientation: koff means the first-order rate constant of dissociation. A high value points to fast dissociation. A word on the Kd: it is the free concentration of one partner at which half of the binding sites on the other are occupied at equilibrium, for simple one-to-one binding. A high value points to lower affinity. Usually kon stands for the rate constant with which the complex forms.
